Laboratory results reported in article PMC10400533, “Exploring the G-quadruplex binding and unwinding activity of the bacterial FeS helicase DinG”.

Key:
DinG helicase [1] = target: T1, DinG helicase (Escherichia coli, UniProt P27296 1-716); experiment: SPR; SPR single-cycle kinetics, 25 C, DinG immobilized, DNA 0.062-1 uM; DNA prepared in 10 mM potassium phosphate, 50 mM KCl, pH 7.5; SPR running buffer not in material; details: protein: recombinant, tags: His-tag
T1 sequence: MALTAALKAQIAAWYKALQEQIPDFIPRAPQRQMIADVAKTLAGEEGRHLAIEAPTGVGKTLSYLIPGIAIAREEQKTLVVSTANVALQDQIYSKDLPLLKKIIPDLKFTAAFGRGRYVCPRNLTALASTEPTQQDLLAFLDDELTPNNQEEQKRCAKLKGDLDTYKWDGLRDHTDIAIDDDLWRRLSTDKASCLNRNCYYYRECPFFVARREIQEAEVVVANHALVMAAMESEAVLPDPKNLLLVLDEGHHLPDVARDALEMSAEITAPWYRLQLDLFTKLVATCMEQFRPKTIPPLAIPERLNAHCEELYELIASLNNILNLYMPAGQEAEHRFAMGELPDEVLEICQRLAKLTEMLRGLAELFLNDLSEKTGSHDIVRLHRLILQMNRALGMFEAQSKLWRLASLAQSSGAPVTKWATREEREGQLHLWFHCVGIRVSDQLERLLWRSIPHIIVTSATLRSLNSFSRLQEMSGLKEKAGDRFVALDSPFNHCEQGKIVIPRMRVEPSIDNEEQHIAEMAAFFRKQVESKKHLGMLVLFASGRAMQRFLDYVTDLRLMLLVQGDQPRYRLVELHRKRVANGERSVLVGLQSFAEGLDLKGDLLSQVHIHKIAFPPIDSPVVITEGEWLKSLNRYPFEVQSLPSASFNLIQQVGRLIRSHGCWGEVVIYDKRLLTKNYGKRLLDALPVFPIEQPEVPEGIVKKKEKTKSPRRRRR

DinG helicase [2] = target: T1, DinG helicase; experiment: SPR; Netropsin; SPR single-cycle kinetics, 25 C, DinG immobilized, DNA 0.062-1 uM; DNA prepared in 10 mM potassium phosphate, 50 mM KCl, pH 7.5; SPR running buffer not in material; details: protein: recombinant; tags: His-tag; parallel unimolecular G4

AGGGAGGGCGCTGGGAGGAGGG (structured_DNA) [c-KIT1]
Kd (DinG helicase [1]; parallel unimolecular G4): 28.9 nM
Kd (DinG helicase [2]): 31.5 nM

AGGGTGGGTAGGGTGGGT (structured_DNA) [c-MYC]
Kd (DinG helicase [1]; parallel unimolecular G4): 30.6 nM

GGGGGAGGAGGACGGGGG (structured_DNA) [EC-7]
Kd (DinG helicase [1]; G4): 56.9 nM

GGGGCGGGGTGGGTTGG (structured_DNA) [EC-9]
Kd (DinG helicase [1]; G4): 34.9 nM

AGGGCGGTGTGGGAATAGGGAA (structured_DNA) [KRAS]
Kd (DinG helicase [1]; parallel unimolecular G4): 46.4 nM

GGGCGCGGGAGGAATTGGGCGGG (structured_DNA) [BCL2]
Kd (DinG helicase [1]; hybrid [3+1] unimolecular G4): 21 nM

TAGGGTTAGGGTTAGGGTTAGGG (structured_DNA) [Tel23]
Kd (DinG helicase [1]; hybrid [3+1] unimolecular G4): 9.4 nM

GGTGGGGGGGCGGGGGAGGCCGGG (structured_DNA) [Zic1]
Kd (DinG helicase [1]; parallel G4): 22.8 nM

GGGTGGGTGGGTGGGT (structured_DNA) [T30695]
Kd (DinG helicase [1]; dimeric parallel G4 of 2 strands): 163 nM

GTGTGTGTGTGTGTGTGTGTGTGTGTGTGT (ssDNA) [G-scramble]
Kd (DinG helicase [1]; no G4 or other secondary structure): 126 nM

B1: DNA-fork (D1/D2) (dsDNA)
DNA 1: CTACTACCCCCACCCTCACAACCTTTTTTTTTTTTTT
DNA 2: TTTTTTTTTTTTTTGGTTGTGAGGGTGGGGGTAGTAG
Kd (DinG helicase [1]; fork 1:2, 23 bp duplex, 3' T14 tail on strand 1 and 5' T14 tail on strand 2): 55.9 nM

GGTGGGGAGGGGTAAGGGG (structured_DNA) [EC-6]
Kd (DinG helicase [1]; G4): 36.7 nM
